Values joined by “and” are separate entries in the source; they are usually repeats but may differ in a detail not shown here. Identical values can stand only once.
What was measured:
HLA B*07 = HLA B*07 (Homo sapiens, UniProt P01889); test: T2B7 binding assay (stabilization of HLA B*07 on TAP-deficient T2 cells, FACS); details: for Avg. Fold Inc. @ 200: fold increase over background; for Avg. Fold Inc. @ 200 / Avg. MFI 200: peptide at 200 ug/ml; for Avg. MFI 200: mean fluorescence index; for Binding number (binding score): numerical sum of all the positive assays; for Binding strength: rated strong, moderate, weak or none by number of significantly positive wells
Experimental: Triplicate wells of peptide at 10, 20, 200 ug/ml were evaluated in each of the T2 B7 binding assays; each assay was repeated 4 times. […] The “binding score” column provides the numerical sum of all the positive assays in the binding summary column.
The T2B7 binding assay method is well described in the literature and operational in the laboratory. This assay relies on the ability of exogenously added peptides to stabilize the class I MHC/beta 2 microglobulin structure on the surface of transporters associated with antigen processing (TAP)-deficient cell lines. Briefly, HLA B*07 T2 cell lines were prepared by incubating overnight (16 hours) at 26° C. Just prior to the binding assay these cells were washed twice in serum-free media. Solutions of the test peptides at three concentrations (final concentration of 10, 20, and 200 ug/ml in RPMI 1640 (Sigma, St. Louis, Mo.)) were plated in triplicate wells of a 96 well, round-bottom assay plate (Beckton Dickinson, Lincoln Park, N.J.). Sixteen wells containing cells without peptide were included in each plate, serving as the no-peptide control (background control) for the assay.
100,000 cells were added to each well, and the plates were then incubated for four hours at 37° C., 5% CO2 The plates were then spun at 110×g for 10 minutes at 4° C., supernatant is discarded and the remaining cells are re-suspended. One hundred uL of diluted primary antibody-containing hybridoma supernatant (1:10 dilution of ME1 supernatant produced by HB-119 cell line from ATCC) in staining buffer (PBS, 5% FBS, 0.1% sodium azide) was added to all of the wells except 8 wells per assay plate (each containing 200 ug/ml of one study peptide, these wells served as controls for non-specific binding of secondary antibody). Primary antibody was incubated with the peptide-pulsed cells for 30 minutes at 4° C. After washing three times, the cells were re-suspended, and 100 uL of a 1:250 dilution of FITC-labeled secondary antibody (FITC labeled Goat F(ab′)2 Anti-mouse IgG (H+L) from Caltag) in staining buffer were added to all wells. The plates were incubated for 30 minutes at 4° C., and subsequently washed three times. The contents of each well were then resuspended in 200 uL of fixing buffer (PBS, 1% paraformaldehyde), and aliquoted into FACS tubes.
The 16 negative control wells in each plate contained no peptide but did contain cells, primary antibody and secondary antibody. An additional set of triplicate wells was plated with peptide at the highest concentration (200 ug/ml), but no primary antibody was added to the wells to control for non-specific secondary antibody binding. One positive control peptide (the known B*07 binder) was tested at three concentrations (in triplicate wells) in each assay plate.
Following fixing, the presence of fluorescent secondary antibody on the surface of T2 cells (gated to the appropriate cell size) was measured at 488 nm on a FACScan flow cytometer (Becton-Dickinson, New Jersey). The mean linear fluorescence […] of 10,000 events was measured and compared to the background fluorescence of cells plated in (no peptide) control wells. A positive response was defined as a 10% increase over baseline MLF and p<0.05, in more than one concentration in each of four assays. The assays are repeated 4 times for each concentration of peptide. Each peptide was tested in a total of 36 wells (triplicate wells, three concentrations, four assays).

HLA B*07 (human) [1] = test: T2B7 HLA stabilisation assay, flow cytometry, peptide at 200 ug/ml
HLA B*07 (human) [2] = test: T2B7 HLA stabilisation assay, flow cytometry, 10/20/200 ug/ml, four assays; details: for Binding results (total of four assays): scale: of 3 concentrations positive

| Molecule | Avg. Fold Inc. @ 200 (HLA B*07) | Avg. MFI 200 (HLA B*07) | Binding number (binding score) (HLA B*07) | Binding strength (HLA B*07) | other results |
| --- | --- | --- | --- | --- | --- |
| APAYSFNCLG [WNB7 005] | 1.2 | 743.5 | – | – | Binding number (binding score) (HLA B*07; listed as 0005): 8; Binding number (binding score) (HLA B*07; listed as WNVB7 0005): 8; Binding strength (HLA B*07; listed as WNVB7 0005): moderate (stabilized HLA B*07 to a moderate degree (receiving binding scores of 6 to 8)) |
| AVKDELNTLL [WNB7 004] | 1.0 | 842.5 | 0 | non-binder (did not bind (binding score of 2)) | – |
| EPPEGVKYVL [WNB7 013] | 1.1 | 681.7 | – | – | Binding number (binding score) (HLA B*07; listed as WNVB7 0013): 6; Binding strength (HLA B*07; listed as WNVB7 0013): moderate (stabilized HLA B*07 to a moderate degree (receiving binding scores of 6 to 8)) |
| GPGHEEPQLV [WNB7 011] | 1.0 | 848.9 | 2 | non-binder (did not bind (binding score of 2)) | – |
| GPGHKARVLA [HIV-1 B7 1291, reference compound] | 2.2 and 1.5 and 1.6 | 1423.8 and 1370.9 and 1003.9 | 8 and 9 | moderate (stabilized HLA B*07 to a moderate degree (receiving binding scores of 6 to 8)) | Binding number (binding score) (HLA B*07; listed as WC 1291): eight to nine; Binding strength (HLA B*07; listed as WC 1291): moderately well |
| IPAGFEPEML [WNB7 008] | 1.9 | 1207.4 | 10 | strong (stabilized HLA B7 on the surface of T2B7 cells at more than two concentrations in all four replicate assays, receiving a total binding score of 10, 11, 11, 12, and 12) | affinity to B*07 in vitro compared with previously published B*07 epitope GPGHKARVLA (from HIV-1) (HLA B*07): much greater affinity |
| KPTGSASSLV [WNB7 015] | 1.7 | 1070.2 | – | – | Binding number (binding score) (HLA B*07; listed as WNVB7 0015): 6; Binding strength (HLA B*07; listed as WNVB7 0015): moderate (stabilized HLA B*07 to a moderate degree (receiving binding scores of 6 to 8)) |
| NPMILAAGLI [WNB7 007] | 1.1 | 944.6 | 2 | non-binder (did not bind (binding score of 2)) | – |
| PEDIDCWCTK [WNVB7 3399] | 1.1 | 990.3 | 1 | non-binder (did not bind (binding score of 2)) | stabilization of HLA B*07 on the surface of T2B7 cells (HLA B*07): did not stabilize T2B7 to a significant degree |
| PETPQGLAKI [WNVB7 3403] | 1.0 | 588.9 | 0 | non-binder (did not bind (binding score of 2)) | stabilization of HLA B*07 on the surface of T2B7 cells (HLA B*07): did not stabilize T2B7 to a significant degree |
| PFPESNSPIS [WNVB7 3411] | 1.0 | 626.7 | 1 | non-binder (did not bind (binding score of 2)) | stabilization of HLA B*07 on the surface of T2B7 cells (HLA B*07): did not stabilize T2B7 to a significant degree |
| PRTNTILEDN [WNVB7 3415] | 0.9 | 778.6 | 0 | non-binder (did not bind (binding score of 2)) | stabilization of HLA B*07 on the surface of T2B7 cells (HLA B*07): did not stabilize T2B7 to a significant degree |
| RPAADGRTVM [WNB7 023] | 1.5 | 979.1 | 12 | strong (stabilized HLA B7 on the surface of T2B7 cells at more than two concentrations in all four replicate assays, receiving a total binding score of 10, 11, 11, 12, and 12) | affinity to B*07 in vitro compared with previously published B*07 epitope GPGHKARVLA (from HIV-1) (HLA B*07): much greater affinity |
| RPQRHDEKTL [WNB7 019] | 2.8 | 1644.6 | 11 | strong (stabilized HLA B7 on the surface of T2B7 cells at more than two concentrations in all four replicate assays, receiving a total binding score of 10, 11, 11, 12, and 12) | affinity to B*07 in vitro compared with previously published B*07 epitope GPGHKARVLA (from HIV-1) (HLA B*07): much greater affinity |
| RPRWIDARVY [WNB7 017] | 1.9 | 1714.0 | 11 | strong (stabilized HLA B7 on the surface of T2B7 cells at more than two concentrations in all four replicate assays, receiving a total binding score of 10, 11, 11, 12, and 12) | affinity to B*07 in vitro compared with previously published B*07 epitope GPGHKARVLA (from HIV-1) (HLA B*07): much greater affinity |
| SPHRVPNYNL [WNB7 020] | 2.5 | 1607.9 | 12 | strong (stabilized HLA B7 on the surface of T2B7 cells at more than two concentrations in all four replicate assays, receiving a total binding score of 10, 11, 11, 12, and 12) | affinity to B*07 in vitro compared with previously published B*07 epitope GPGHKARVLA (from HIV-1) (HLA B*07): much greater affinity |
| TPAAPSYTLK [WNB7 009] | 1.5 | 954.5 | – | – | Binding number (binding score) (HLA B*07; listed as WNVB7 0009): 8; Binding strength (HLA B*07; listed as WNVB7 0009): moderate (stabilized HLA B*07 to a moderate degree (receiving binding scores of 6 to 8)) |
| TPGLRCLNLD [WNB7 024] | 1.0 | 849.6 | 2 | non-binder (did not bind (binding score of 2)) | – |
| VPCRGQDELV [WNB7 010] | 1.0 | 658.6 | 4 | weak (weak binders (binding score of 4)) | – |
| VPGTKIAGML [WNB7 018] | 1.7 | 1088.4 | – | – | Binding number (binding score) (HLA B*07; listed as WNVB7 0018): 6; Binding strength (HLA B*07; listed as WNVB7 0018): moderate (stabilized HLA B*07 to a moderate degree (receiving binding scores of 6 to 8)) |
| NPMILAAGLI [WNVB7 0007] | – | – | – | – | Avg. Fold Inc. @ 200 (fold over background) (HLA B*07 (human) [1]): 1.1; Avg. MFI 200 (HLA B*07 (human) [1]): 945 MFI; Binding number (binding score) (HLA B*07 (human) [2]): 2; Binding results (total of four assays) (HLA B*07 (human) [2]; in 2 assays): 1 |
| AVKDELNTLL [WNVB7 0004] | – | – | – | – | Avg. Fold Inc. @ 200 (fold over background) (HLA B*07 (human) [1]): 1; Avg. MFI 200 (HLA B*07 (human) [1]): 842 MFI; Binding number (binding score) (HLA B*07 (human) [2]): 0; Binding results (total of four assays) (HLA B*07 (human) [2]; in 4 assays): 0 |
| PFPESNSPIS [WNVB7 3411] | – | – | – | – | Avg. Fold Inc. @ 200 (fold over background) (HLA B*07 (human) [1]): 1; Avg. MFI 200 (HLA B*07 (human) [1]): 627 MFI; Binding number (binding score) (HLA B*07 (human) [2]): 1; Binding results (total of four assays) (of 3 concentrations positive, in 1 assay) (HLA B*07 (human) [2]): 1 |
| AAKKKGASLL [WNVB7 0006] | – | – | – | – | Avg. Fold Inc. @ 200 (fold over background) (HLA B*07 (human) [1]): 1.2; Avg. MFI 200 (HLA B*07 (human) [1]): 708 MFI; Binding number (binding score) (HLA B*07 (human) [2]): 4; Binding results (total of four assays) (HLA B*07 (human) [2]; in 4 assays): 1 |
| PRTNTILEDN [WNVB7 3415] | – | – | – | – | Avg. Fold Inc. @ 200 (fold over background) (HLA B*07 (human) [1]): 0.9; Avg. MFI 200 (HLA B*07 (human) [1]): 779 MFI; Binding number (binding score) (HLA B*07 (human) [2]): 0; Binding results (total of four assays) (HLA B*07 (human) [2]; in 4 assays): 0 |

From US20050048073A1, “Methods of determining west nile virus epitopes and method of using the same” (priority 2001, published 2005)
